Reference: publication PMC4402530, “Unwinding forward and sliding back: an intermittent unwinding mode of the BLM helicase”

Tests used:
Experiment in all cases: fluorescence anisotropy; 1 mM MgCl2, no ATP listed; 25 mM Tris-HCl pH 7.5 (last digit split in text), 100 mM NaCl, 1 mM MgCl2, 3 mM DTT, 5 nM DNA, 25 C, 5 min equilibration; Hill fit
Conditions in all cases: protein: recombinant
BLM642-1290 S1121A = BLM642-1290 S1121A (human, UniProt P54132 642-1290, S1121A)
BLM642-1290 K1125A = BLM642-1290 K1125A (human, UniProt P54132 642-1290, K1125A)
BLM642-1290 T1110G = BLM642-1290 T1110G (human, UniProt P54132 642-1290, T1110G)
[1] = biological target: BLM642-1290 helicase core, wild type (human, UniProt P54132 642-1290)
[2] = label: 3' fluorescein on F18, blunt

Sequence of BLM642-1290 S1121A (P54132 642-1290 S1121A): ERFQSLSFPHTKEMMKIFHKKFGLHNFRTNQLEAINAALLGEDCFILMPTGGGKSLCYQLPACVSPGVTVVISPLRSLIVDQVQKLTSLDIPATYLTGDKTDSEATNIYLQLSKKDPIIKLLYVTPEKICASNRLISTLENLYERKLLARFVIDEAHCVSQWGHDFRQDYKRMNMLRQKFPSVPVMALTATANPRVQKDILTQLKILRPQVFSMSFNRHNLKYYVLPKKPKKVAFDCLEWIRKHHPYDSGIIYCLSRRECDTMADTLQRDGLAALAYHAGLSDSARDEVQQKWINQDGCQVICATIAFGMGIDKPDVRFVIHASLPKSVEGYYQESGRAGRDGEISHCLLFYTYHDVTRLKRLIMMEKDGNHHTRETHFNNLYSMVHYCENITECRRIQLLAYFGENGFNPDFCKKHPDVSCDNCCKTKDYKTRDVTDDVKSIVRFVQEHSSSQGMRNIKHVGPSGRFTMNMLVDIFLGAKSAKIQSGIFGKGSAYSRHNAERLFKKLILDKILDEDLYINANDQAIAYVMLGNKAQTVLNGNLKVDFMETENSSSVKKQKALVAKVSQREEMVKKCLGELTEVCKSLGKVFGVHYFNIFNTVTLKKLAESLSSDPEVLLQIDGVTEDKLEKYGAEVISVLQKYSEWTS
Sequence of BLM642-1290 T1110G (P54132 642-1290 T1110G): as the sequence (P54132 642-1290 S1121A) above, with T469G, A480S counted along it
Sequence of BLM642-1290 K1125A (P54132 642-1290 K1125A): as the sequence (P54132 642-1290 S1121A) above, with A480S, K484A counted along it
Sequence of BLM642-1290 helicase core, wild type (P54132 642-1290): as the sequence (P54132 642-1290 S1121A) above, with A480S counted along it

Binder	Kd (BLM642-1290 S1121A; [2])	Kd (BLM642-1290 K1125A; [2])	Kd (BLM642-1290 T1110G; [2])	Kd [1, 2]	Kd (BLM642-1290 S1121A; label: 3' fluorescein)	Kd (BLM642-1290 K1125A; label: 3' fluorescein)	Kd (BLM642-1290 T1110G; label: 3' fluorescein)	Kd ([1]; label: 3' fluorescein)
F18/F18 bis dsDNA (18 bp) (dsDNA) DNA 1: GCCTCGCTGCCGTCGCCA DNA 2: TGGCGACGGCAGCGAGGC	14.9 ± 1.7 nM	28.6 ± 2.6 nM	78.2 ± 7.2 nM	4.6 ± 0.5 nM	–	–	–	–
GCCTCGCTGCCGTCGCCA (ssDNA) [F18 ssDNA (18 nt)]	–	–	–	–	27.1 ± 3.7 nM	21.3 ± 2.9 nM	29.7 ± 3.6 nM	17.2 ± 1.6 nM
